The values that follow come from publication PMC7305236.

No end group written: not given here. Bounds are passed on as bounds.

The labels stand for the following.
B1: CXCL11 (ligand)
chain: FPMFKRGRCLCIGPGVKAVKVADIEKASIMYPSNNCDKIEVIITLKENKGQRCLNPKSKQARLIIKKVERKNF

The first assay deals with ACKR3 C-terminally tagged with SmBiT (human) (UniProt P25106).
Chain of ACKR3 C-terminally tagged with SmBiT (human) (P25106 whole entry): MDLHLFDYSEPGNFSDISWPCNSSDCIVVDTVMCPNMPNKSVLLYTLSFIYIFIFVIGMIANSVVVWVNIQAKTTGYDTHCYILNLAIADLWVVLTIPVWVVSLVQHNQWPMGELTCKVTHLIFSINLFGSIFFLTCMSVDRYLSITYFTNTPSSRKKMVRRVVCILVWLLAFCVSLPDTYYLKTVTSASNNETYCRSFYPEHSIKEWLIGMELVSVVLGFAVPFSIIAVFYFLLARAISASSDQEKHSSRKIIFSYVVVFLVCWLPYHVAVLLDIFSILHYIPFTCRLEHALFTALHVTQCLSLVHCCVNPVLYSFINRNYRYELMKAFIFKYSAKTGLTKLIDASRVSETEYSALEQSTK
Consider YGGFMRRVGRPEWWMDYQKRYG [BAM22], for which the β-arrestin-1 recruitment (NanoBiT, U87 cells): EC50 was 23.5 nM.

In the next assay the target is delta opioid receptor (DOR) C-terminally tagged with SmBiT (UniProt P41143).
The molecule YGGFMRRVGRPEWWMDYQKRYG [BAM22] came in with a β-arrestin-1 recruitment (NanoBiT, U87 cells): EC50 of 367 nM.
Consider YGGFM [Met enkephalin], for which the β-arrestin-1 recruitment (NanoBiT, U87 cells): EC50 came to 16.3 nM.

Another assay addresses kappa opioid receptor (KOR) C-terminally tagged with SmBiT (UniProt P41145).
Molecule YGGFMRRVGRPEWWMDYQKRYG [BAM22] gave a β-arrestin-1 recruitment (NanoBiT, U87 cells): EC50 of 44.2 nM.

A further assay concerns the target mu opioid receptor (MOR) C-terminally tagged with SmBiT (UniProt P35372).
YGGFMRRVGRPEWWMDYQKRYG [BAM22] displayed a β-arrestin-1 recruitment (NanoBiT, U87 cells): EC50 of 10 nM.
Same read-out and setting: the same measure for YGGFM [Met enkephalin]: 419 nM.

The target in another assay is atypical chemokine receptor ACKR3 (formerly CXCR7) (human) (UniProt P25106).
Chain of atypical chemokine receptor ACKR3 (formerly CXCR7) (human) (P25106 whole entry): as the sequence (P25106 whole entry) above
In the case of YGGFMRRVC-NH2 (also: dimer of two chains) [adrenorphin-derived peptide (…)2], the Supplementary Table 4: EC50 of β-arrestin-1 recruitment to ACKR3, U87 cells is 52.9 nM.
As to YGGFMRRVR-NH2, the Supplementary Table 4: EC50 of β-arrestin-1 recruitment to ACKR3, U87 cells was 12.6 nM.
In turn, YGGFARRV-NH2 [adrenorphin-derived peptide YGGFARRV] gave a Supplementary Table 4: EC50 of β-arrestin-1 recruitment to ACKR3, U87 cells of 5000 nM.
The same measure, in the same setting: the same measure for YGSFMRRV-NH2 [adrenorphin-derived peptide YGSFMRRV]: 668 nM; for YGGWMRRV-NH2 [adrenorphin-derived peptide YGGWMRRV]: 70.3 nM; for YGAFMRRV-NH2 [adrenorphin-derived peptide YGAFMRRV]: 263 nM.
In the case of YGGFMRRK-NH2 [adrenorphin-derived peptide YGGFMRRK], the Supplementary Table 4: EC50 of β-arrestin-1 recruitment to ACKR3, U87 cells came out at 37 nM.
Take AYGGFMRRV-NH2: the Supplementary Table 4: EC50 of β-arrestin-1 recruitment to ACKR3, U87 cells came to 330 nM.
Still for that read-out and setting: under YGGFMKRV-NH2 [adrenorphin-derived peptide YGGFMKRV] stands 5000 nM.
On to YGGFMRRF-NH2 [adrenorphin-derived peptide YGGFMRRF], for which the Supplementary Table 4: EC50 of β-arrestin-1 recruitment to ACKR3, U87 cells worked out at 73.5 nM.
Take YGGFFRRV-NH2 [adrenorphin-derived peptide YGGFFRRV]: the Supplementary Table 4: EC50 of β-arrestin-1 recruitment to ACKR3, U87 cells stood at 1540 nM.
YGGFMARV-NH2 [adrenorphin-derived peptide YGGFMARV]: the Supplementary Table 4: EC50 of β-arrestin-1 recruitment to ACKR3, U87 cells was determined as 5000 nM.
YGGFMRRQ-NH2 [adrenorphin-derived peptide YGGFMRRQ] registered a Supplementary Table 4: EC50 of β-arrestin-1 recruitment to ACKR3, U87 cells of 110 nM.
As for YGGFMRRVA-NH2, the Supplementary Table 4: EC50 of β-arrestin-1 recruitment to ACKR3, U87 cells was 72.3 nM.
For the molecule YGGFQRRV-NH2 [adrenorphin-derived peptide YGGFQRRV], the Supplementary Table 4: EC50 of β-arrestin-1 recruitment to ACKR3, U87 cells stood at 5000 nM.
Molecule YGGFLRRV-NH2 [adrenorphin-derived peptide YGGFLRRV] displayed a Supplementary Table 4: EC50 of β-arrestin-1 recruitment to ACKR3, U87 cells of 684 nM.

A further assay concerns the target delta opioid receptor (DOR) (human) (UniProt P41143).
YGGFMRRVC-NH2 (also: dimer of two chains) [adrenorphin-derived peptide (…)2] showed a Supplementary Table 4: EC50 of β-arrestin-1 recruitment to DOR, U87 cells of 253 nM.
On the same count and under the same terms, the same measure for YGGFMRRVR-NH2: 193 nM; for YGGFARRV-NH2 [adrenorphin-derived peptide YGGFARRV]: over 10000 nM.
Regarding YGSFMRRV-NH2 [adrenorphin-derived peptide YGSFMRRV], the Supplementary Table 4: EC50 of β-arrestin-1 recruitment to DOR, U87 cells was over 10000 nM.
In turn, YGGWMRRV-NH2 [adrenorphin-derived peptide YGGWMRRV] showed a Supplementary Table 4: EC50 of β-arrestin-1 recruitment to DOR, U87 cells of 1020 nM.
Molecule YGAFMRRV-NH2 [adrenorphin-derived peptide YGAFMRRV] had a Supplementary Table 4: EC50 of β-arrestin-1 recruitment to DOR, U87 cells of 1580 nM.
In turn, YGGFMRRK-NH2 [adrenorphin-derived peptide YGGFMRRK] yielded a Supplementary Table 4: EC50 of β-arrestin-1 recruitment to DOR, U87 cells of 527 nM.
The same measure, in the same setting: the same measure for AYGGFMRRV-NH2: 637 nM; for YGGFMKRV-NH2 [adrenorphin-derived peptide YGGFMKRV]: 360 nM; for YGGFMRRF-NH2 [adrenorphin-derived peptide YGGFMRRF]: 212 nM.
On the same count and under the same terms, the same measure for YGGFFRRV-NH2 [adrenorphin-derived peptide YGGFFRRV]: 1310 nM.
Still for that read-out and setting: the same measure for YGGFMARV-NH2 [adrenorphin-derived peptide YGGFMARV]: 147 nM.
Molecule YGGFMRRQ-NH2 [adrenorphin-derived peptide YGGFMRRQ] returned a Supplementary Table 4: EC50 of β-arrestin-1 recruitment to DOR, U87 cells of 259 nM.
YGGFMRRVA-NH2: the Supplementary Table 4: EC50 of β-arrestin-1 recruitment to DOR, U87 cells is 272 nM.
As for YGGFQRRV-NH2 [adrenorphin-derived peptide YGGFQRRV], the Supplementary Table 4: EC50 of β-arrestin-1 recruitment to DOR, U87 cells was over 10000 nM.
Molecule YGGFLRRV-NH2 [adrenorphin-derived peptide YGGFLRRV] gave a Supplementary Table 4: EC50 of β-arrestin-1 recruitment to DOR, U87 cells of 513 nM.

Another assay deals with kappa opioid receptor (KOR) (human) (UniProt P41145).
The molecule YGGFMRRVC-NH2 (also: dimer of two chains) [adrenorphin-derived peptide (…)2] returned a Supplementary Table 4: EC50 of β-arrestin-1 recruitment to KOR, U87 cells of 79.4 nM.
YGGFMRRVR-NH2 displayed a Supplementary Table 4: EC50 of β-arrestin-1 recruitment to KOR, U87 cells of 21.9 nM.
In turn, YGGFARRV-NH2 [adrenorphin-derived peptide YGGFARRV] gave a Supplementary Table 4: EC50 of β-arrestin-1 recruitment to KOR, U87 cells of 656 nM.
Same read-out and setting: the same measure for YGSFMRRV-NH2 [adrenorphin-derived peptide YGSFMRRV]: over 10000 nM.
As to YGGWMRRV-NH2 [adrenorphin-derived peptide YGGWMRRV], the Supplementary Table 4: EC50 of β-arrestin-1 recruitment to KOR, U87 cells is over 10000 nM.
Still for that read-out and setting: the same measure for YGAFMRRV-NH2 [adrenorphin-derived peptide YGAFMRRV]: 315 nM; for YGGFMRRK-NH2 [adrenorphin-derived peptide YGGFMRRK]: 19.2 nM.
For AYGGFMRRV-NH2, the Supplementary Table 4: EC50 of β-arrestin-1 recruitment to KOR, U87 cells amounted to 205 nM.
The molecule YGGFMKRV-NH2 [adrenorphin-derived peptide YGGFMKRV] yielded a Supplementary Table 4: EC50 of β-arrestin-1 recruitment to KOR, U87 cells of 416 nM.
YGGFMRRF-NH2 [adrenorphin-derived peptide YGGFMRRF] yielded a Supplementary Table 4: EC50 of β-arrestin-1 recruitment to KOR, U87 cells of 80.9 nM.
Regarding YGGFFRRV-NH2 [adrenorphin-derived peptide YGGFFRRV], the Supplementary Table 4: EC50 of β-arrestin-1 recruitment to KOR, U87 cells stood at 194 nM.
Molecule YGGFMARV-NH2 [adrenorphin-derived peptide YGGFMARV] showed a Supplementary Table 4: EC50 of β-arrestin-1 recruitment to KOR, U87 cells of 2240 nM.
On the same count and under the same terms, under YGGFMRRQ-NH2 [adrenorphin-derived peptide YGGFMRRQ] stands 63.1 nM; under YGGFMRRVA-NH2, 57.5 nM.
In the case of YGGFQRRV-NH2 [adrenorphin-derived peptide YGGFQRRV], the Supplementary Table 4: EC50 of β-arrestin-1 recruitment to KOR, U87 cells came to 283 nM.
In turn, YGGFLRRV-NH2 [adrenorphin-derived peptide YGGFLRRV] displayed a Supplementary Table 4: EC50 of β-arrestin-1 recruitment to KOR, U87 cells of 31.9 nM.

The target of the next assay is mu opioid receptor (MOR) (human) (UniProt P35372).
Molecule YGGFMRRVC-NH2 (also: dimer of two chains) [adrenorphin-derived peptide (…)2] registered a Supplementary Table 4: EC50 of β-arrestin-1 recruitment to MOR, U87 cells of 271 nM.
Still for that read-out and setting: the same measure for YGGFMRRVR-NH2: 58.7 nM; for YGGFARRV-NH2 [adrenorphin-derived peptide YGGFARRV]: over 10000 nM; for YGSFMRRV-NH2 [adrenorphin-derived peptide YGSFMRRV]: over 10000 nM.
As to YGGWMRRV-NH2 [adrenorphin-derived peptide YGGWMRRV], the Supplementary Table 4: EC50 of β-arrestin-1 recruitment to MOR, U87 cells came out at 522 nM.
Turning to YGAFMRRV-NH2 [adrenorphin-derived peptide YGAFMRRV], the Supplementary Table 4: EC50 of β-arrestin-1 recruitment to MOR, U87 cells is over 10000 nM.
Take YGGFMRRK-NH2 [adrenorphin-derived peptide YGGFMRRK]: the Supplementary Table 4: EC50 of β-arrestin-1 recruitment to MOR, U87 cells is 252 nM.
AYGGFMRRV-NH2: the Supplementary Table 4: EC50 of β-arrestin-1 recruitment to MOR, U87 cells was 308 nM.
In the case of YGGFMKRV-NH2 [adrenorphin-derived peptide YGGFMKRV], the Supplementary Table 4: EC50 of β-arrestin-1 recruitment to MOR, U87 cells came to 63.8 nM.
For YGGFMRRF-NH2 [adrenorphin-derived peptide YGGFMRRF], the Supplementary Table 4: EC50 of β-arrestin-1 recruitment to MOR, U87 cells came out at 198 nM.
Still for that read-out and setting: the same measure for YGGFFRRV-NH2 [adrenorphin-derived peptide YGGFFRRV]: 363 nM.
Same read-out and setting: under YGGFMARV-NH2 [adrenorphin-derived peptide YGGFMARV] stands 35.4 nM.
As to YGGFMRRQ-NH2 [adrenorphin-derived peptide YGGFMRRQ], the Supplementary Table 4: EC50 of β-arrestin-1 recruitment to MOR, U87 cells came to 183 nM.
As for YGGFMRRVA-NH2, the Supplementary Table 4: EC50 of β-arrestin-1 recruitment to MOR, U87 cells is 174 nM.
As to YGGFQRRV-NH2 [adrenorphin-derived peptide YGGFQRRV], the Supplementary Table 4: EC50 of β-arrestin-1 recruitment to MOR, U87 cells worked out at 5000 nM.
YGGFLRRV-NH2 [adrenorphin-derived peptide YGGFLRRV] gave a Supplementary Table 4: EC50 of β-arrestin-1 recruitment to MOR, U87 cells of 880 nM.

The target in a further assay is atypical chemokine receptor ACKR3 (formerly CXCR7) (human) (UniProt P25106). This is another data set of the same source.
Consider FGGFMRRF-NH2 [second-generation peptide FGGFMRRF], for which the Supplementary Table 5: EC50 of β-arrestin-1 recruitment to ACKR3 amounted to 11 nM.
On the same count and under the same terms, the same measure for FGGWMRRK-NH2 [second-generation peptide FGGWMRRK]: 4.39 nM.
Take FGGWMRRFR-NH2: the Supplementary Table 5: EC50 of β-arrestin-1 recruitment to ACKR3 was 19.1 nM.
As for FGGWMRRF-NH2 [second-generation peptide FGGWMRRF], the Supplementary Table 5: EC50 of β-arrestin-1 recruitment to ACKR3 is 19.1 nM.
The molecule FGGFMRRKR-NH2 gave a Supplementary Table 5: EC50 of β-arrestin-1 recruitment to ACKR3 of 1.12 nM.
Consider FGGWMRRKR-NH2, for which the Supplementary Table 5: EC50 of β-arrestin-1 recruitment to ACKR3 was 7.34 nM.
With FGGFMRRFR-NH2, the Supplementary Table 5: EC50 of β-arrestin-1 recruitment to ACKR3 was found to be 16.3 nM.
On the same count and under the same terms, under FGGWMRRV-NH2 [second-generation peptide FGGWMRRV] stands 10.5 nM; under FGGFMRRVR-NH2, 3.53 nM; under FGGWMRRVR-NH2, 6.16 nM.

Another assay deals with ACKR3 C-terminally tagged with SmBiT (human) (UniProt P25106). This is another data set of the same source.
FGGFMRRV-NH2 [adrenorphin Y1F variant]: the potency in β-arrestin-1 recruitment against wild-type adrenorphin (U87 cells) amounted to 10 fold.

For another assay the target is unchanged. The source holds these as a separate data set.
B1 showed a β-arrestin recruitment to ACKR3 (Fig. 4b): EC50 of 2.2 nM.
